Measurements published in PMC9527803.

Biological target: baker's yeast alcohol dehydrogenase (baker's yeast) (UniProt P00330)
Experiment: native MS; nano-ESI from 0.2 mol/L ammonium acetate, protein 2 to 5 x 10^-6 mol/L, Q Exactive UHMR modified for deposition

baker's yeast alcohol dehydrogenase (from UniProt P00330 1-348) (enzyme)
stoichiometry N: 4
